For data set [1], the target named is T1, recombinant human trimeric ARG1 enzyme (Homo sapiens, UniProt P05089).
T1 construct: Avi tag (N); His10 (after a GGG linker) (C); made in house; host or cells: E. coli BL21 (DE3)
T1 sequence (P05089 with tags, fused parts or gaps): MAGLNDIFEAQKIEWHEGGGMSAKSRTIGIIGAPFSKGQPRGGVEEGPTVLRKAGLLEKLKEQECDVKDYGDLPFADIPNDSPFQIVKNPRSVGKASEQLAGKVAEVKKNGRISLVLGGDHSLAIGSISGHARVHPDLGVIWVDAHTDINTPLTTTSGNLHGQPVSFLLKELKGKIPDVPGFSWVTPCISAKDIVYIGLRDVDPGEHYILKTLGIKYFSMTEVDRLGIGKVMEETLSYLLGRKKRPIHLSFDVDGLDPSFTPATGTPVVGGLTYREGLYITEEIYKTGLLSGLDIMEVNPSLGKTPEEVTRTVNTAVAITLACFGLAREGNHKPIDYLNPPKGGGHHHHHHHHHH
Kind of data set: Direct binding HTRF assay, human trimeric ARG1. The settings on record: purified scFv, FIG. 1B. In general terms: Time-resolved FRET reads energy transfer from a long-lived donor to a nearby acceptor.

In data set [2] the test system is recombinant cynomolgus monkey trimeric ARG2 enzyme. Kind of data set: Direct binding HTRF assay, cynomolgus trimeric ARG2. The following applies: purified scFv, FIG. 1C.
Data set [3] has as its target T2, human ARG2 (trimer) (Homo sapiens, UniProt P78540).
T2 construct: human ARG2 (aa23-354); His10 (C); made in house; host or cells: E. coli BL21 (DE3)
T2 sequence (P78540 23-354): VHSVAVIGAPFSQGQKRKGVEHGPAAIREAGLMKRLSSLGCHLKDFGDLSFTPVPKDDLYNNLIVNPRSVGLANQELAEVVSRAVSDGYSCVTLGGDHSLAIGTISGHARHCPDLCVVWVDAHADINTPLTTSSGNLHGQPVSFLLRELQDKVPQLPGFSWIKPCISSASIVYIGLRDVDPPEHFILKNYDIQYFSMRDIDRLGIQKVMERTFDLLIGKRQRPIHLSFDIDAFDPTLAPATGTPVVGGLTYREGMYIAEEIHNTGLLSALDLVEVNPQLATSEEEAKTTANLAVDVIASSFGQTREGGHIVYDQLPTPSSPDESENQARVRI
The data set can be described thus: Mechanism of action study (effect on ARG2 Vmax and Km) in trimeric ARG2 enzyme inhibition assay. The class given is biochemical. The following applies: for Km / Vmax: arginine 2.5-250 mM; for mode of action on ARG2: from effects on Vmax and Km. An excerpt:
The mechanism of action of enzyme inhibitors can be broadly divided into competitive, uncompetitive and non-competitive and can be identified as such based on their effects on Km and Vmax.
A competitive inhibitor binds only to free enzyme, often at the active site, causing the affinity of the enzyme for the substrate to be reduced (increased Km) with no change to the maximum enzyme rate (Vmax).
The enzyme's affinity for the substrate is increased (Km is decreased) and the maximum enzyme rate (Vmax) is decreased.
A non-competitive inhibitor binds equally well to free enzyme and enzyme-substrate complex. The enzyme's affinity for the substrate (Km) is unchanged and the maximum enzyme rate (Vmax) is decreased. […]
The mechanism of action of the lead identification clone C0021158 IgG was investigated using the human ARG2 (trimer) enzyme inhibition assay as well as isothermal titration calorimetry.
The enzyme inhibition assay is described in section 1.5 and is a biochemical assay that measures production of urea, the product of L-arginine turnover by ARG2. To investigate the mechanism of action of C0021158 IgG, four point titrations of C0021158 IgG (1000, 100, 30 and 10 nM) were set up in the presence of 11 concentrations of arginine ([…]) and the reaction allowed to proceed for 80, 60, 45, 30, 15 or 5 minutes before the addition of the urea detection reagents O-Phthaldialdehyde and N-(1-Napthyl)ethylenediamine.
Raw data from each separate concentration of C0021158 IgG was plotted as a function of time for each concentration of arginine and fitted using a linear fit (GraphPad Prism) to derive initial velocities (slope values).
Initial velocity data was plotted against arginine concentration for each concentration of C0021158 IgG (FIG. 15A). Each trace was fitted to the Michaelis-Menten model (Y=Vmax*X/(Km+X)) in GraphPad Prism to derive maximum velocity (Vmax) and enzyme/substrate affinity (Km) values at each inhibitor concentration (Table 23).
In the case of C0021158 IgG inhibitor Vmax decreased in the presence of C0021158 IgG inhibitor, ruling out a competitive mode of action and pointing towards an uncompetitive or a non-competitive mode of action. To distinguish non-competitive from uncompetitive modes of action the effect on Km must be assessed. […] This uncharacteristic profile led to poor fitting of the data making it difficult to derive an accurate Km. The lack of accurate Km data means C0021158 IgG cannot be assigned as uncompetitive or non-competitive.

Data set [4] concerns the target T3, ARG2 (Homo sapiens, UniProt P78540).
T3 sequence (P78540 23-354): T2 sequence (P78540 23-354)
Kind of data set: Isothermal titration calorimetry of BEC with ARG2 and ARG2-C0021158 fab complex. Details: human ARG2 (aa23-354); His10 (C); made in house; host or cells: E. coli BL21 (DE3). Format: binding. The following applies: 20 μM ARG2 and 20 μM C0021158 fab, 0.50 mM BEC titrated, 25° C. The method, then: To assess the accessibility of the ARG2 active site, we analysed binding of the ARG2 small-molecule inhibitor S-(2-Boronoethyl)-L-cysteine hydrochloride (BEC) by isothermal titration calorimetry (ITC) using a VP ITC (MicroCal) set to 25° C. (FIG. 15B). BEC is an arginine analogue that binds to the active site of ARG2. First, volumes of 10 μl of a solution containing 0.75 mM BEC were added to 20 μM of ARG2 (monomer concentration). The resulting thermogram was integrated using NITPIC and the binding isotherm was fitted with SEDPHAT using a one-binding site model. In a second experiment, volumes of 10 μl of 0.50 mM BEC were added to a solution containing a pre-incubated 1:1 molar mixture of C0021158 fab and ARG2 (both 20 μM, incubation 1 h at 20° C.).
In general terms: ITC needs no label: the signal is the heat of the interaction.

recombinant cynomolgus monkey trimeric ARG2 enzyme, sequence (as listed by the source): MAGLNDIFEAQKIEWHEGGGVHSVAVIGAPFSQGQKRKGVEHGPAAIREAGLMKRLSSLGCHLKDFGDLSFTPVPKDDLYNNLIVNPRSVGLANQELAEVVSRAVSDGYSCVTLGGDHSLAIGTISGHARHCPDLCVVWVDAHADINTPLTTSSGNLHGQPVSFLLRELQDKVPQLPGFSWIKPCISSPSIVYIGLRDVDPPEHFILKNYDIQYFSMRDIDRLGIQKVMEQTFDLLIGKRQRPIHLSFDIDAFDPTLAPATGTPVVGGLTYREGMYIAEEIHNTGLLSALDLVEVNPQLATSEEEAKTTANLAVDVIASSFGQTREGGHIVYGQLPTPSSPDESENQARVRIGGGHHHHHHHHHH

B1: C0020065: anti-ARG2 antibody, alternate lead isolation clone, VH SEQ ID NO: 2, VL SEQ ID NO: 7 (antibody, listed as Homo sapiens, V domains shown)
VH: GVNLRESGGGVVQPGRSLRLSCAASGFTFSSYAMHWVRQAPGKGLEWVAVISYDGSNKYYVDSVKGRFTISRDNSKNTLYLQMNSLRAEDTAVYYCARDSSQLWFDYWGRGTLVTVSS
VL: QSVVTQPPSVSGAPGQRVTISCTGSSSNIGTGYDVHWYQQLPGTAPKLLIYGNSNRPSGVPDRFSGSKSGTSASLAITGLQAEDEADYYCQSYDSSLSGSVVFGGGTQLTVL
modifications: C0020065
Consider B1, for which the “binding to biotinylated recombinant human trimeric ARG1 enzyme” value in data set [1] was “no binding”. Moreover, the “binding to biotinylated recombinant cynomolgus trimeric ARG2 enzyme” value in data set [2] is given as “bound”.

B2: C0021158 IgG: anti-ARG2 antibody, VH SEQ ID NO: 282, VL SEQ ID NO: 287; IgG and Fab versions carry these sequences (antibody, listed as Homo sapiens, V domains shown)
VH: EVQLLESGGGLVQPGGSLRLSCAASGFTFRYEVAAWVRQAPGKGLEWVSAISGPIPKGYYADSVKGRFTISRDNSKNTLYLQMNSLRAEDTAVYYCARLRADLGLYMDLWGRGTLVTVSS
VL: QSVLTQPPSVSAAPGQKVTISCSGSSSNIGNHYVSWYQQLPGTAPKLLIYDNSERTAGVPDRFSGSKSGTSATLGITGLQTGDEADYYCGTWDELTSNLVFGGGTKLTVL
modifications: C0021158 IgG
In general, Km refers to the substrate concentration at which the rate is half of its maximum. With B2, the Km in data set [3] (10 nM C0021158 IgG) was determined as 1640 µM; in data set [3] (100 nM C0021158 IgG) it was 590 µM. The Vmax in data set [3] (10 nM C0021158 IgG) worked out at 148.5 AU ms^−1; in data set [3] (30 nM C0021158 IgG), 89.23 AU ms^−1; in data set [3] (100 nM C0021158 IgG), 112.8 AU ms^−1; in data set [3] (1 μM C0021158 IgG), 103.4 AU ms^−1. Moreover, the figures for the “mode of action on ARG2” value in data set [3] and in data set [3] (listed as C0021158 fab) were “not competitive” and “allosteric inhibitor”, respectively. For the same molecule, the “effect on binding of BEC to ARG2 (ITC)” value in data set [4] is listed as “prevents BEC from binding”.

Values taken from patent US20220403048A1, “BINDING MOLECULES TO ARGINASE II [ARG2]” (Cancer Research Technology Limited, priority 2019, published 2022).
